According to patent publication US20240026407A1, “MODIFICATION OF SAPONINS” (GLAXOSMITHKLINE BIOLOGICALS SA, priority 2020, published 2024):
Where a chain is given by its changes, count along the chain named. Names may count otherwise.

Experiments:
[1] = Example 10: derhamnosylation of saponins in crude bark extract (50%) using WT and engineered rhamnosidases R1 to R5; format: biochemical, Quillaja saponaria; conditions: 7 h, 50% CBE, 35 degC; for % Right Peak: starting CBE 26; for % Left Peak: starting CBE 30; for % Middle Peak: starting CBE 44
Protocol: Lyophilised powders from clarified cell lysate expressing glucosidases (from Example 8 WT glucosidase and engineered glucosidase polypeptides G1 to G5) and rhamnosidases (from Example 9 WT rhamnosidase and engineered rhamnosidase polypeptides R1 to R5) were dissolved in 200 mM sodium acetate aqueous solution at pH 5.8 to prepare the enzyme solutions at 4 fold the final reaction concentration as shown in Tables 19 and 20.
Each rhamnosidase solution was combined with an equal volume of 200 mM sodium acetate aqueous solution at pH 5.8 and separately with an equal volume of 200 mM sodium acetate aqueous solution at pH 5.8 containing 2 mg/ml glucosidase G5. This is a sufficient loading of glucosidase to effect complete hydrolysis of the relevant glucose moiety within 4 hours.
CBE was adjusted to pH of 6.0 to 6.2 with 2M sodium hydroxide and an equal volume added to the enzyme solution to prepare the reaction mix (i.e. 50% CBE concentration in reaction mix) and the concentration of glucosidase and/or rhamnosidase is shown in Tables 19 and 20. The reaction mix was heated to 35 degC for the time indicated in Tables 19 and 20, after which the reaction was quenched by addition of an equal volume of MeCN containing 2% acetic acid and shaken at room temperature for 10 mins prior to centrifugation (10 min, 4 degC) to remove particulates. Samples were analysed by UV HPLC using method of Experiment 4-4.
The change in composition of the Left, Middle and Right peaks is shown in Tables 19 and 20. The composition changes by the action of the enzymes depending on the presence or absence of the partner enzyme. The extent of reaction is proportional to the enzyme concentration and the reaction time under these conditions. The tables show data for enzyme concentrations and the reaction times providing for equivalent extents of reaction. The improvement resulting from the mutations introduced for each variant is equal to the fold change in enzyme concentration×time (i.e. fold improvement=(enzyme concentration×time) for preceding variant÷(enzyme concentration×time) for later variant). A cumulative fold improvement over the original enzyme variant is calculated by the product of the individual fold improvements.

[2] = Example 9: screening of rhamnosidase variants for derhamnosylation of saponins in crude bark extract; format: biochemical, Quillaja saponaria; conditions: 18 h, CBE 75% v/v, 100 mM Sodium acetate pH 5.8; for Cumulative FIOP from WT: estimate
Protocol: Libraries of genetic variants encoding mutations in the wild type Kribbella flavida rhamnosidase (SEQ ID No. 1017) were prepared using molecular biology techniques, enzymes were prepared linked to a C-terminally located His-tag. Single monoclonal colonies were grown in 400 ul of expression medium and protein expressed. Cell pellets were lysed in 200 ul of the relevant buffer (Table 17).
Lysate was diluted appropriately in the relevant buffer to allow a lysate loading of the indicated % loading (1% loading corresponds to use of 2 ul original lysate in a 200 ul reaction).
Crude bark extract (CBE) obtained by aqueous extraction of Quillaja saponaria and containing at least 2.80 mg/ml QS-21 (by HPLC-UV) was adjusted to pH 6 by dropwise addition of 2M NaOH with stirring. The relevant concentration of the relevant glucosidase was added. The appropriate relative volume of pH 6 CBE (160 ul (for 80%) or 150 ul (for 75%)) was added to each well of the reaction plate. The reaction plate was sealed and incubated at the relevant temperature and time.
The reaction plate was quenched by adding 200 uL of MeCN (2% AcOH, 1 mg/mL hexanophenone) to each well of the plates. The quenched reaction plate was re-sealed and incubated at 20 deg C. with shaking for 10 min. The reaction plate was then centrifuged (10 min, 4 degC).
200 uL was transferred from each well of the quenched plate to the corresponding wells of a fresh 96 well plate and sealed. The plate was analysed by UV HPLC with the method described in Example 4.
Three key peaks of interest are apparent using this chromatography: Left Peak (retention time approximately 2.30-2.35 min) comprising mainly QS-17 family components; Middle Peak (retention time approximately 2.37-2.42 min) comprising mainly QS-18 family components and desglucosyl-QS-17 family components; and Right Peak (retention time approximately 2.44-2.50 min) comprising mainly QS-21 family components. Peak identity was supported by MS/MS.
Enzyme activity is calculated as the % conversion of the Left Peak present in the crude bark extract: […]

[3] = rhamnosidase 0.63 mg/ml + glucosidase G5 0.5 mg/ml
[4] = rhamnosidase 0.63 mg/ml, no glucosidase
[5] = R3 round: 35 deg C, lysate 0.4% v/v
[6] = R4 round: 35 deg C, lysate 0.125% v/v
[7] = R4 round: 35 deg C, lysate 0.125% v/v, negative control 26.09
[8] = R4 round: 35 deg C, lysate 0.125% v/v, negative control 29.62
[9] = R4 round: 35 deg C, lysate 0.125% v/v, negative control 44.29
[10] = R4 round: 35 deg C, lysate 0.125% v/v, negative control 46.84
[11] = rhamnosidase 0.31 mg/ml + glucosidase G5 0.5 mg/ml
[12] = rhamnosidase 0.31 mg/ml, no glucosidase

B1: Variant R3: engineered rhamnosidase polypeptide, variant of Kribbella flavida rhamnosidase SEQ ID No. 1017 (protein)
chain: MSFPAAPARLRFEHRTDPGPVLGIGTATPRLSWQVPTAPDDYRQAGYEVEIARGDAAPEQYTVDSADQVLVPWPGTPLAARESATVRVRVRGDGDWSQWSDPATVEAGLLSADDWTARFVSPRENAGHEAPAPLIGGVIDLPPDIAQARLYATAHGIYEPTLNGTRVGDEQLAPGWTAYEQRLRYQTYDVTDLVAPGENRLELLVGNGWYRGRMGFHGGHSLYGDRLAVLAQLEVTTATGEVKVLASDGTWTTRETNVLADDLYDGQHVDLRRTLGEPGPVDVLDADLSLLVAPDGPPVRVTDVLPAKAVTTSPAGKTLVDFGQNVVGRLRLRVRGGAAGDEIVLRHAEVLEDGELCVRPLRTAKATDSFVLAGPDEVTLEPTLTFHGFRYAEITGVPDLRAEDVEAVVVGSDLRRTGWFESSHPLLDRFHENVVWGMRGNFLDVPTDCPQRDERLGWTGDIQVFSPTASFLFDTAGFLTNWLADLIAEQHKDGSVPFVVPDVLRQPGPATAAWGDAATIVPWVLYERTGDAGLLARQLPSMRAWVDRMAGLAGDDLLWVGGFQFGDWLDPTAPPDDPFRAKADPDVLATAHLARSAEVVALAAEVVGAGELAREYAELAARVRQAFAAEYTTGSGRVLSDAATNYALALQWALLPTEAQRKRAGERLADLVRTAGFRISTGFVGTPLMADALADSGHPDLAYRLLLETGCPSWLYAVTMDATTVWERWDSMLPDGSINPGQMTSFNHYALGAVADWMHRRVAGLAPGDPGYRRIVVDPLFTAHLTKASARHLTPYGEAAVAWSRSGGRVRLEVTVPVGARARVAVPGESAPVEVGHGTHEWTADDVYGETPPLPADATIRQLIDHEPSWTTLAAAATRTGIVADDAELAGRLERYLDHPATELVDAVSPRGFSPSAEALHAELDSVLGR
modifications: Seq ID No. 1017 with mutations A143P, L214M, K219G, Q921H, G357C
For B1, the “% change in Left Peak” value [1, 3] was −38%, the “% change in Middle Peak” value [1, 3] was −99% and the “% change in Right Peak” value [1, 3] was 311%. The “Cumulative Fold improvement in primary enzyme loading × time” value (from here on “Cumulative Fold improvement”) [1, 3] was 8, the “Fold improvement in primary enzyme loading × time” value [1, 3] was 2.0 and the “% Right Peak” value [1, 3] was 81%. For the same molecule, the “% Left Peak” value [1, 3] was 19%, the “% Middle Peak” value [1, 3] was 0% and the “% change in Left Peak” value [1, 4] was −45%. The “% change in Middle Peak” value [1, 4] was 21%, the “% change in Right Peak” value [1, 4] was 116% and the “Cumulative Fold improvement” value [1, 4] was 8. The “Fold improvement in primary enzyme loading × time” value [1, 4] was 2.0, the “% Right Peak” value [1, 4] was 30% and the “% Left Peak” value [1, 4] was 16%. The “% Middle Peak” value [1, 4] was 53%, the “% conversion (Right peak/Left Peak) (−neg control)” value [2, 5] was 13.06% and the “Cumulative FIOP from WT” value [2, 5] was 9.4. The “Right Peak %” value ([2]; R3 round: 35 deg C, lysate 0.4% v/v, negative control 26.60) was 29.45%, the “Left Peak %” value ([2]; R3 round: 35 deg C, lysate 0.4% v/v, negative control 28.91) was 18.85% and the “Middle Peak %” value ([2]; R3 round: 35 deg C, lysate 0.4% v/v, negative control 44.49) was 51.70%. For the same molecule, the “% conversion (Right peak/Left Peak)” value ([2]; R3 round: 35 deg C, lysate 0.4% v/v, negative control 47.91) was 60.97%, the “FIOP (% area increase variant/pos control)” value ([2]; R3 round: 35 deg C, lysate 0.4% v/v, positive control R2) was 3.3 and the “% conversion (Right peak/Left Peak) (−neg control)” value [2, 6] was 2.16%. The “Right Peak %” value [2, 7] was 26.56%, the “Left Peak %” value [2, 8] was 27.65% and the “Middle Peak %” value [2, 9] was 45.79%. For the same molecule, the “% conversion (Right peak/Left Peak)” value [2, 10] was 49.00%.

B2: Variant R4: engineered rhamnosidase polypeptide, variant of Kribbella flavida rhamnosidase SEQ ID No. 1017 (protein)
chain: B1 chain with G215S, G218N, G508S, G634A
modifications: Seq ID No. 1017 with mutations A143P, L214M, G215S, G218N, K219G, G357C, G508S, G634A, Q921H
For B2, the “% change in Left Peak” value [1, 11] was −42%, the “% change in Middle Peak” value [1, 11] was −93% and the “% change in Right Peak” value [1, 11] was 306%. For the same molecule, the “Cumulative Fold improvement” value [1, 11] was 16, the “Fold improvement in primary enzyme loading × time” value [1, 11] was 2.0 and the “% Right Peak” value [1, 11] was 79%. The “% Left Peak” value [1, 11] was 17%, the “% Middle Peak” value [1, 11] was 3% and the “% change in Left Peak” value [1, 12] was −45%. For the same molecule, the “% change in Middle Peak” value [1, 12] was 22%, the “% change in Right Peak” value [1, 12] was 115% and the “Cumulative Fold improvement” value [1, 12] was 16. For the same molecule, the “Fold improvement in primary enzyme loading × time” value [1, 12] was 2.0, the “% Right Peak” value [1, 12] was 30% and the “% Left Peak” value [1, 12] was 16%. For the same molecule, the “% Middle Peak” value [1, 12] was 54%, the “% conversion (Right peak/Left Peak) (−neg control)” value [2, 6] was 5.06% and the “Cumulative FIOP from WT” value [2, 6] was 22.1. The “Right Peak %” value [2, 7] was 27.00%, the “Left Peak %” value [2, 8] was 25.03% and the “Middle Peak %” value [2, 9] was 47.96%. For the same molecule, the “% conversion (Right peak/Left Peak)” value [2, 10] was 51.89%, the “FIOP (% area increase variant/pos control)” value ([2]; R4 round: 35 deg C, lysate 0.125% v/v, positive control R3) was 2.3 and the “% conversion (Right peak/Left Peak) (−neg control)” value ([2]; R5 round: 35 deg C, lysate 0.0625% v/v) was 2.02%. For the same molecule, the “Right Peak %” value ([2]; R5 round: 35 deg C, lysate 0.0625% v/v, negative control 26.23) was 26.79%, the “Left Peak %” value ([2]; R5 round: 35 deg C, lysate 0.0625% v/v, negative control 28.76) was 27.09% and the “Middle Peak %” value ([2]; R5 round: 35 deg C, lysate 0.0625% v/v, negative control 45.00) was 46.12%. For the same molecule, the “% conversion (Right peak/Left Peak)” value ([2]; R5 round: 35 deg C, lysate 0.0625% v/v, negative control 47.70) was 49.72%.
